{"source": "the supplement of paper PMC10567573", "parents": {"B1": {"name": "ISL2 (parent)", "chain": "HYPFLGAMGDHSKKKPGTAMCVGC"}, "B2": {"name": "CDS2 (parent)", "chain": "LIVVTQSHLVIHNLFEGMIWFIVP"}}}
{"variants_of": "B1", "experiment": "protein stability index of a GFP-peptide fusion (GPS, HEK-293T) (PSI 1-6); higher = more stable", "conditions": "c terminus: a fixed tail appended"}
{"variant": "HYPFLGAMGDHSKKKPLTAMCVGC", "note": "[G17L]", "protein stability index": 2.1}
{"variant": "HYPFLGAMGDHSKKKPGLAMCVGC", "note": "[T18L]", "protein stability index": 2}
{"variant": "HYPFLGAMGDHSKKKPGGAMCVGC", "note": "[T18G]", "protein stability index": 2.5}
{"variant": "HYPFLGAMGDHSKKKPGKAMCVGC", "note": "[T18K]", "protein stability index": 2.71}
{"variant": "HYPFLGAMGDHSKKKPGEAMCVGC", "note": "[T18E]", "protein stability index": 2.94}
{"variant": "HYPFLGAMGDHSKKKPGDAMCVGC", "note": "[T18D]", "protein stability index": 3.4}
{"variant": "HYPFLGAMGDHSKKKPGIAMCVGC", "note": "[T18I]", "protein stability index": 2}
{"variant": "HYPFLGAMGDHSKKKPGSAMCVGC", "note": "[T18S]", "protein stability index": 2.76}
{"variant": "HYPFLGAMGDHSKKKPGQAMCVGC", "note": "[T18Q]", "protein stability index": 2.67}
{"variant": "HYPFLGAMGDHSKKKPGNAMCVGC", "note": "[T18N]", "protein stability index": 2.71}
{"variant": "HYPFLGAMGDHSKKKPGCAMCVGC", "note": "[T18C]", "protein stability index": 3.02}
{"variant": "HYPFLGAMGDHSKKKPGMAMCVGC", "note": "[T18M]", "protein stability index": 2.67}
{"variant": "HYPFLGAMGDHSKKKPGYAMCVGC", "note": "[T18Y]", "protein stability index": 2.15}
{"variant": "HYPFLGAMGDHSKKKPGRAMCVGC", "note": "[T18R]", "protein stability index": 1.81}
{"variant": "HYPFLGAMGDHSKKKPGHAMCVGC", "note": "[T18H]", "protein stability index": 2.59}
{"variant": "HYPFLGAMGDHSKKKPGPAMCVGC", "note": "[T18P]", "protein stability index": 2.65}
{"variant": "HYPFLGAMGDHSKKKPGFAMCVGC", "note": "[T18F]", "protein stability index": 2}
{"variant": "HYPFLGAMGDHSKKKPGAAMCVGC", "note": "[T18A]", "protein stability index": 2.62}
{"variant": "HYPFLGAMGDHSKKKPGWAMCVGC", "note": "[T18W]", "protein stability index": 1.47}
{"variant": "HYPFLGAMGDHSKKKPGVAMCVGC", "note": "[T18V]", "protein stability index": 2.25}
{"variant": "HYPFLGAMGDHSKKKLGTAMCVGC", "note": "[P16L]", "protein stability index": 2.17}
{"variant": "HYPFLGAMGDHSKKKSGTAMCVGC", "note": "[P16S]", "protein stability index": 2.69}
{"variant": "HYPFLGAMGDHSKKKFGTAMCVGC", "note": "[P16F]", "protein stability index": 1.62}
{"variant": "HYPFLGAMGDHSKKKRGTAMCVGC", "note": "[P16R]", "protein stability index": 1.99}
{"variant": "HYPFLGAMGDHSKKKNGTAMCVGC", "note": "[P16N]", "protein stability index": 2.7}
{"variant": "HYPFLGAMGDHSKKKEGTAMCVGC", "note": "[P16E]", "protein stability index": 3.07}
{"variant": "HYPFLGAMGDHSKKKYGTAMCVGC", "note": "[P16Y]", "protein stability index": 2.42}
{"variant": "HYPFLGAMGDHSKKKVGTAMCVGC", "note": "[P16V]", "protein stability index": 2.06}
{"variant": "HYPFLGAMGDHSKKKWGTAMCVGC", "note": "[P16W]", "protein stability index": 2.41}
{"variant": "HYPFLGAMGDHSKKKTGTAMCVGC", "note": "[P16T]", "protein stability index": 2.37}
{"variant": "HYPFLGAMGDHSKKKQGTAMCVGC", "note": "[P16Q]", "protein stability index": 2.44}
{"variant": "HYPFLGAMGDHSKKKAGTAMCVGC", "note": "[P16A]", "protein stability index": 2.52}
{"variant": "HYPFLGAMGDHSKKKMGTAMCVGC", "note": "[P16M]", "protein stability index": 2.45}
{"variant": "HYPFLGAMGDHSKKKKGTAMCVGC", "note": "[P16K]", "protein stability index": 2.24}
{"variant": "HYPFLGAMGDHSKKKHGTAMCVGC", "note": "[P16H]", "protein stability index": 2.61}
{"variant": "HYPFLGAMGDHSKKKIGTAMCVGC", "note": "[P16I]", "protein stability index": 1.67}
{"variant": "HYPFLGAMGDHSKKKGGTAMCVGC", "note": "[P16G]", "protein stability index": 2.19}
{"variant": "HYPFLGAMGDHSKKKCGTAMCVGC", "note": "[P16C]", "protein stability index": 3.12}
{"variant": "HYPFLGAMGDHSKKKDGTAMCVGC", "note": "[P16D]", "protein stability index": 3.02}
{"variant": "HYPFLGAMGDHSKKKPGTARCVGC", "note": "[M20R]", "protein stability index": 3.25}
{"variant": "HYPFLGAMGDHSKKKPGTACCVGC", "note": "[M20C]", "protein stability index": 3.18}
{"variant": "HYPFLGAMGDHSKKKPGTADCVGC", "note": "[M20D]", "protein stability index": 3.61}
{"variant": "HYPFLGAMGDHSKKKPGTAFCVGC", "note": "[M20F]", "protein stability index": 1.87}
{"variant": "HYPFLGAMGDHSKKKPGTAQCVGC", "note": "[M20Q]", "protein stability index": 3.09}
{"variant": "HYPFLGAMGDHSKKKPGTASCVGC", "note": "[M20S]", "protein stability index": 3.55}
{"variant": "HYPFLGAMGDHSKKKPGTAHCVGC", "note": "[M20H]", "protein stability index": 2.85}
{"variant": "HYPFLGAMGDHSKKKPGTAACVGC", "note": "[M20A]", "protein stability index": 3.27}
{"variant": "HYPFLGAMGDHSKKKPGTAVCVGC", "note": "[M20V]", "protein stability index": 2.62}
{"variant": "HYPFLGAMGDHSKKKPGTANCVGC", "note": "[M20N]", "protein stability index": 3.16}
{"variant": "HYPFLGAMGDHSKKKPGTAWCVGC", "note": "[M20W]", "protein stability index": 2.04}
{"variant": "HYPFLGAMGDHSKKKPGTAICVGC", "note": "[M20I]", "protein stability index": 2.29}
{"variant": "HYPFLGAMGDHSKKKPGTALCVGC", "note": "[M20L]", "protein stability index": 2.44}
{"variant": "HYPFLGAMGDHSKKKPGTAKCVGC", "note": "[M20K]", "protein stability index": 3.7}
{"variant": "HYPFLGAMGDHSKKKPGTAGCVGC", "note": "[M20G]", "protein stability index": 3.03}
{"variant": "HYPFLGAMGDHSKKKPGTAYCVGC", "note": "[M20Y]", "protein stability index": 1.99}
{"variant": "HYPFLGAMGDHSKKKPGTATCVGC", "note": "[M20T]", "protein stability index": 3.16}
{"variant": "HYPFLGAMGDHSKKKPGTAECVGC", "note": "[M20E]", "protein stability index": 3.62}
{"variant": "HYPFLGAMGDHSKKKPGTAPCVGC", "note": "[M20P]", "protein stability index": 3.03}
{"variant": "HYPFLGAMGDHSKKKPGTAMCEGC", "note": "[V22E]", "protein stability index": 3.46}
{"variant": "HYPFLGAMGDHSKKKPGTAMCFGC", "note": "[V22F]", "protein stability index": 2.16}
{"variant": "HYPFLGAMGDHSKKKPGTAMCDGC", "note": "[V22D]", "protein stability index": 3.43}
{"variant": "HYPFLGAMGDHSKKKPGTAMCPGC", "note": "[V22P]", "protein stability index": 3.05}
{"variant": "HYPFLGAMGDHSKKKPGTAMCCGC", "note": "[V22C]", "protein stability index": 3.39}
{"variant": "HYPFLGAMGDHSKKKPGTAMCTGC", "note": "[V22T]", "protein stability index": 3.42}
{"variant": "HYPFLGAMGDHSKKKPGTAMCHGC", "note": "[V22H]", "protein stability index": 3.01}
{"variant": "HYPFLGAMGDHSKKKPGTAMCNGC", "note": "[V22N]", "protein stability index": 3.61}
{"variant": "HYPFLGAMGDHSKKKPGTAMCSGC", "note": "[V22S]", "protein stability index": 3.6}
{"variant": "HYPFLGAMGDHSKKKPGTAMCIGC", "note": "[V22I]", "protein stability index": 2.08}
{"variant": "HYPFLGAMGDHSKKKPGTAMCLGC", "note": "[V22L]", "protein stability index": 2.42}
{"variant": "HYPFLGAMGDHSKKKPGTAMCGGC", "note": "[V22G]", "protein stability index": 3.59}
{"variant": "HYPFLGAMGDHSKKKPGTAMCAGC", "note": "[V22A]", "protein stability index": 3.04}
{"variant": "HYPFLGAMGDHSKKKPGTAMCWGC", "note": "[V22W]", "protein stability index": 1.35}
{"variant": "HYPFLGAMGDHSKKKPGTAMCKGC", "note": "[V22K]", "protein stability index": 3.18}
{"variant": "HYPFLGAMGDHSKKKPGTAMCYGC", "note": "[V22Y]", "protein stability index": 2.34}
{"variant": "HYPFLGAMGDHSKKKPGTAMCQGC", "note": "[V22Q]", "protein stability index": 3.44}
{"variant": "HYPFLGAMGDHSKKKPGTAMCMGC", "note": "[V22M]", "protein stability index": 2.52}
{"variant": "HYPFLGAMGDHSKKKPGTAMCRGC", "note": "[V22R]", "protein stability index": 3.57}
{"variants_of": "B2", "experiment": "protein stability index of a GFP-peptide fusion (GPS, HEK-293T) (PSI 1-6); higher = more stable", "conditions": "c terminus: a fixed tail appended"}
{"variant": "LFVVTQSHLVIHNLFEGMIWFIVP", "note": "[I2F]", "protein stability index": 1.75}
{"variant": "LDVVTQSHLVIHNLFEGMIWFIVP", "note": "[I2D]", "protein stability index": 1.02}
{"variant": "LCVVTQSHLVIHNLFEGMIWFIVP", "note": "[I2C]", "protein stability index": 1.83}
{"variant": "VIVVTQSHLVIHNLFEGMIWFIVP", "note": "[L1V]", "protein stability index": 3.56}
{"variant": "TIVVTQSHLVIHNLFEGMIWFIVP", "note": "[L1T]", "protein stability index": 4.15}
{"variant": "SIVVTQSHLVIHNLFEGMIWFIVP", "note": "[L1S]", "protein stability index": 3.83}
{"variant": "FIVVTQSHLVIHNLFEGMIWFIVP", "note": "[L1F]", "protein stability index": 3.17}
{"variant": "MIVVTQSHLVIHNLFEGMIWFIVP", "note": "[L1M]", "protein stability index": 3.16}
{"variant": "YIVVTQSHLVIHNLFEGMIWFIVP", "note": "[L1Y]", "protein stability index": 3.07}
{"variant": "IIVVTQSHLVIHNLFEGMIWFIVP", "note": "[L1I]", "protein stability index": 3.5}
{"variant": "AIVVTQSHLVIHNLFEGMIWFIVP", "note": "[L1A]", "protein stability index": 3.25}
{"variant": "NIVVTQSHLVIHNLFEGMIWFIVP", "note": "[L1N]", "protein stability index": 2.67}
{"variant": "HIVVTQSHLVIHNLFEGMIWFIVP", "note": "[L1H]", "protein stability index": 3.11}
{"variant": "DIVVTQSHLVIHNLFEGMIWFIVP", "note": "[L1D]", "protein stability index": 3.86}
{"variant": "PIVVTQSHLVIHNLFEGMIWFIVP", "note": "[L1P]", "protein stability index": 3.61}
{"variant": "RIVVTQSHLVIHNLFEGMIWFIVP", "note": "[L1R]", "protein stability index": 3.84}
{"variant": "QIVVTQSHLVIHNLFEGMIWFIVP", "note": "[L1Q]", "protein stability index": 4.19}
